Source: PMC7839251

Molecular target: N-terminal fluorescein labeled ubiquitin E3 ligase WWP2 (FAM-WWP2)
Experiment: MST

Kd: 9.6 µM
Substance: ubiquitin E2 conjugating enzyme UbcH5c (from UniProt P61077 1-147)
